{
  "source": "paper PMC10008561",
  "key": {"human KOR D155A (human)": {"biological_target": "human KOR D155A (human) (UniProt P41145)"}, "human KOR L253A (human)": {"biological_target": "human KOR L253A (human) (UniProt P41145)"}, "human KOR R170A (human)": {"biological_target": "human KOR R170A (human) (UniProt P41145)"}, "human KOR R257A (human)": {"biological_target": "human KOR R257A (human) (UniProt P41145)"}},
  "data": [
    {"substance": "Gα gustducin fused with Renilla luciferase (Gα-RLuc8) (from UniProt A8MTJ3 1-354) (natural protein)", "values": [
      {"measurement": "BRET2 G protein activation (TRUPATH); fold decrease of the potency of nalfurafine against wild-type KOR", "setting": "human KOR D155A (human)", "value": "< 10", "unit": "fold"},
      {"measurement": "BRET2 G protein activation (TRUPATH) with nalfurafine; fold decrease against wild-type KOR", "setting": "human KOR L253A (human)", "value": 10, "unit": "fold"},
      {"measurement": "BRET2 G protein activation (TRUPATH); fold decrease of the potency of nalfurafine against wild-type KOR", "setting": "human KOR R170A (human)", "value": 10, "unit": "fold"},
      {"measurement": "BRET2 G protein activation (TRUPATH) with nalfurafine; fold decrease against wild-type KOR", "setting": "human KOR R257A (human)", "value": 10, "unit": "fold"}
    ]},
    {"substance": "Gαi2 fused with Renilla luciferase (Gα-RLuc8) (from UniProt P04899 1-355) (natural protein)", "values": [
      {"measurement": "BRET2 G protein activation (TRUPATH); fold decrease of the potency of nalfurafine against wild-type KOR", "setting": "human KOR D155A (human)", "value": "< 10", "unit": "fold"},
      {"measurement": "BRET2 G protein activation (TRUPATH) with nalfurafine; fold decrease against wild-type KOR", "setting": "human KOR L253A (human)", "value": 100, "unit": "fold"},
      {"measurement": "BRET2 G protein activation (TRUPATH); fold decrease of the potency of nalfurafine against wild-type KOR", "setting": "human KOR R170A (human)", "value": 100, "unit": "fold"},
      {"measurement": "BRET2 G protein activation (TRUPATH) with nalfurafine; fold decrease against wild-type KOR", "setting": "human KOR R257A (human)", "value": 100, "unit": "fold"}
    ]},
    {"substance": "Gαi3 fused with Renilla luciferase (Gα-RLuc8) (from UniProt P08754 1-354) (natural protein)", "values": [
      {"measurement": "BRET2 G protein activation (TRUPATH); fold decrease of the potency of nalfurafine against wild-type KOR", "setting": "human KOR D155A (human)", "value": "< 10", "unit": "fold"},
      {"measurement": "BRET2 G protein activation (TRUPATH) with nalfurafine; fold decrease against wild-type KOR", "setting": "human KOR L253A (human)", "value": 100, "unit": "fold"},
      {"measurement": "BRET2 G protein activation (TRUPATH); fold decrease of the potency of nalfurafine against wild-type KOR", "setting": "human KOR R170A (human)", "value": 100, "unit": "fold"},
      {"measurement": "BRET2 G protein activation (TRUPATH) with nalfurafine; fold decrease against wild-type KOR", "setting": "human KOR R257A (human)", "value": 100, "unit": "fold"}
    ]},
    {"substance": "GαoA fused with Renilla luciferase (Gα-RLuc8) (from UniProt P09471 1-354) (natural protein)", "values": [
      {"measurement": "BRET2 G protein activation (TRUPATH); fold decrease of the potency of nalfurafine against wild-type KOR", "setting": "human KOR D155A (human)", "value": "< 10", "unit": "fold"},
      {"measurement": "BRET2 G protein activation (TRUPATH) with nalfurafine; fold decrease against wild-type KOR", "setting": "human KOR L253A (human)", "value": 10, "unit": "fold"},
      {"measurement": "BRET2 G protein activation (TRUPATH); fold decrease of the potency of nalfurafine against wild-type KOR", "setting": "human KOR R170A (human)", "value": 10, "unit": "fold"},
      {"measurement": "BRET2 G protein activation (TRUPATH) with nalfurafine; fold decrease against wild-type KOR", "setting": "human KOR R257A (human)", "value": 10, "unit": "fold"}
    ]},
    {"substance": "GαoB fused with Renilla luciferase (Gα-RLuc8) (from UniProt P09471-2 1-354) (natural protein)", "values": [
      {"measurement": "BRET2 G protein activation (TRUPATH); fold decrease of the potency of nalfurafine against wild-type KOR", "setting": "human KOR D155A (human)", "value": "< 10", "unit": "fold"},
      {"measurement": "BRET2 G protein activation (TRUPATH) with nalfurafine; fold decrease against wild-type KOR", "setting": "human KOR L253A (human)", "value": 10, "unit": "fold"},
      {"measurement": "BRET2 G protein activation (TRUPATH); fold decrease of the potency of nalfurafine against wild-type KOR", "setting": "human KOR R170A (human)", "value": 10, "unit": "fold"},
      {"measurement": "BRET2 G protein activation (TRUPATH) with nalfurafine; fold decrease against wild-type KOR", "setting": "human KOR R257A (human)", "value": 10, "unit": "fold"}
    ]},
    {"substance": "Gαz fused with Renilla luciferase (Gα-RLuc8) (from UniProt P19086 1-355) (natural protein)", "values": [
      {"measurement": "BRET2 G protein activation (TRUPATH); fold decrease of the potency of nalfurafine against wild-type KOR", "setting": "human KOR D155A (human)", "value": "< 10", "unit": "fold"},
      {"measurement": "BRET2 G protein activation (TRUPATH) with nalfurafine; fold decrease against wild-type KOR", "setting": "human KOR L253A (human)", "value": 10, "unit": "fold"},
      {"measurement": "BRET2 G protein activation (TRUPATH); fold decrease of the potency of nalfurafine against wild-type KOR", "setting": "human KOR R170A (human)", "value": 10, "unit": "fold"},
      {"measurement": "BRET2 G protein activation (TRUPATH) with nalfurafine; fold decrease against wild-type KOR", "setting": "human KOR R257A (human)", "value": 10, "unit": "fold"}
    ]}
  ]
}
